The record followed here is patent US20220324969A1 (MYTHIC THERAPEUTICS, published 2022).

The target in this experiment is CD33 (Sino Biological, Cat #12238-H08H) (UniProt P20138 18-259). Briefly: BLI, IgG captured on anti-human Fc sensor, 50 nM CD33, pH 7.4 vs pH 5.4. (In BLI a coated tip is dipped into the sample, and binding shifts an interference pattern.)
Sequence of CD33 (Sino Biological, Cat #12238-H08H) (P20138 18-259 limits assumed): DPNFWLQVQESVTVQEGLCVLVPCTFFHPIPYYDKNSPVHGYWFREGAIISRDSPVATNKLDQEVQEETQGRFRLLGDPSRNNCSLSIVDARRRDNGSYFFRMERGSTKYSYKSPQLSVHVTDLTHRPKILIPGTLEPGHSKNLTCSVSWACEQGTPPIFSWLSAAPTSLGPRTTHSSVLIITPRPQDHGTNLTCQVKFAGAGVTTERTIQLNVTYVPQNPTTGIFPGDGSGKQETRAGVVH

B1: MYT2630 (antibody, V domains shown)
VH: QVQLQQPGAEVVKPGASVKMSCKASGYTFTSYYIHWIKQTPGQGLEWVGVIYPGNDDISYNQKFQGKATLTADKSSTTAYMQLSSLTSEDSAVYYCAREVRLRYFDVWGQGTTVTVSS
VL: EIVLTQSPGSLAVSPGERVTMSCKSSQSVFFSSSQKHYLAWYQQIPGQSPRLLIYWASTRESGVPDRFTGSGSGTDFTLTISSVQPEDLAIYYCHQYLSSRTFGQGTKLEIK
notes: IgG; IMGN779 VL variant #14 (N37H)
B1: the binding result is “binds”.

B2: MYT2640 (antibody, V domains shown)
VH: QVQLQQPGAEVVKPGASVKMSCKASGYTFTSYYIHWIKQTPGQGLEWVGVIYPGNDDISYNQKFQGKATLTADKSSTTAYMQLSSLTSEDSAVYYCAREVRLRYFDVWGQGTTVTVSS
VL: EIVLTQSPGSLAVSPGERVTMSCKSSQSVFFSSSQKNYLAWYQQIPGQSPRLLIYWASTREHGVPDRFTGSGSGTDFTLTISSVQPEDLAIYYCHQYLSSRTFGQGTKLEIK
notes: IgG; IMGN779 VL variant #24 (S62H)
On to B2, for which the binding result is “binds”.

B3: MYT2636 (antibody, V domains shown)
VH: QVQLQQPGAEVVKPGASVKMSCKASGYTFTSYYIHWIKQTPGQGLEWVGVIYPGNDDISYNQKFQGKATLTADKSSTTAYMQLSSLTSEDSAVYYCAREVRLRYFDVWGQGTTVTVSS
VL: EIVLTQSPGSLAVSPGERVTMSCKSSQSVFFSSSQKNYLAWYQQIPGQSPRLLIYWAHTRESGVPDRFTGSGSGTDFTLTISSVQPEDLAIYYCHQYLSSRTFGQGTKLEIK
notes: IgG; IMGN779 VL variant #20 (S58H)
Regarding B3, the binding result is on record as “binds”.

B4: MYT2638 (antibody, V domains shown)
VH: QVQLQQPGAEVVKPGASVKMSCKASGYTFTSYYIHWIKQTPGQGLEWVGVIYPGNDDISYNQKFQGKATLTADKSSTTAYMQLSSLTSEDSAVYYCAREVRLRYFDVWGQGTTVTVSS
VL: EIVLTQSPGSLAVSPGERVTMSCKSSQSVFFSSSQKNYLAWYQQIPGQSPRLLIYWASTHESGVPDRFTGSGSGTDFTLTISSVQPEDLAIYYCHQYLSSRTFGQGTKLEIK
notes: IgG; IMGN779 VL variant #22 (R60H)
Take B4: the binding result is “binds”.

B5: MYT2635 (antibody, V domains shown)
VH: QVQLQQPGAEVVKPGASVKMSCKASGYTFTSYYIHWIKQTPGQGLEWVGVIYPGNDDISYNQKFQGKATLTADKSSTTAYMQLSSLTSEDSAVYYCAREVRLRYFDVWGQGTTVTVSS
VL: EIVLTQSPGSLAVSPGERVTMSCKSSQSVFFSSSQKNYLAWYQQIPGQSPRLLIYWHSTRESGVPDRFTGSGSGTDFTLTISSVQPEDLAIYYCHQYLSSRTFGQGTKLEIK
notes: IgG; IMGN779 VL variant #19 (A57H)
For the molecule B5, the binding result was “binds”.

B6: MYT2641 (antibody, V domains shown)
VH: QVQLQQPGAEVVKPGASVKMSCKASGYTFTSYYIHWIKQTPGQGLEWVGVIYPGNDDISYNQKFQGKATLTADKSSTTAYMQLSSLTSEDSAVYYCAREVRLRYFDVWGQGTTVTVSS
VL: EIVLTQSPGSLAVSPGERVTMSCKSSQSVFFSSSQKNYLAWYQQIPGQSPRLLIYWASTRESGVPDRFTGSGSGTDFTLTISSVQPEDLAIYYCAQYLSSRTFGQGTKLEIK
notes: IgG; IMGN779 VL variant #25 (H95A)
Consider B6, for which the binding result is listed as “binds”.

B7: MYT2642 (antibody, V domains shown)
VH: QVQLQQPGAEVVKPGASVKMSCKASGYTFTSYYIHWIKQTPGQGLEWVGVIYPGNDDISYNQKFQGKATLTADKSSTTAYMQLSSLTSEDSAVYYCAREVRLRYFDVWGQGTTVTVSS
VL: EIVLTQSPGSLAVSPGERVTMSCKSSQSVFFSSSQKNYLAWYQQIPGQSPRLLIYWASTRESGVPDRFTGSGSGTDFTLTISSVQPEDLAIYYCHHYLSSRTFGQGTKLEIK
notes: IgG; IMGN779 VL variant #26 (Q96H)
Turning to B7, the binding result is “binds”.

B8: MYT2631 (antibody, V domains shown)
VH: QVQLQQPGAEVVKPGASVKMSCKASGYTFTSYYIHWIKQTPGQGLEWVGVIYPGNDDISYNQKFQGKATLTADKSSTTAYMQLSSLTSEDSAVYYCAREVRLRYFDVWGQGTTVTVSS
VL: EIVLTQSPGSLAVSPGERVTMSCKSSQSVFFSSSQKNHLAWYQQIPGQSPRLLIYWASTRESGVPDRFTGSGSGTDFTLTISSVQPEDLAIYYCHQYLSSRTFGQGTKLEIK
notes: IgG; IMGN779 VL variant #15 (Y38H)
Take B8: the binding result is recorded as “binds”.

B9: MYT2648 (antibody, V domains shown)
VH: QVQLQQPGAEVVKPGASVKMSCKASGYTFTSYYIHWIKQTPGQGLEWVGVIYPGNDDISYNQKFQGKATLTADKSSTTAYMQLSSLTSEDSAVYYCAREVRLRYFDVWGQGTTVTVSS
VL: EIVLTQSPGSLAVSPGERVTMSCKSSQSVFFSSSQKNYLAWYQQIPGQSPRLLIYWASTRESGVPDRFTGSGSGTDFTLTISSVQPEDLAIYYCHQYLSSRHFGQGTKLEIK
notes: IgG; IMGN779 VL variant #32 (T102H)
In the case of B9, the binding result was “binds”.

B10: MYT2643 (antibody, V domains shown)
VH: QVQLQQPGAEVVKPGASVKMSCKASGYTFTSYYIHWIKQTPGQGLEWVGVIYPGNDDISYNQKFQGKATLTADKSSTTAYMQLSSLTSEDSAVYYCAREVRLRYFDVWGQGTTVTVSS
VL: EIVLTQSPGSLAVSPGERVTMSCKSSQSVFFSSSQKNYLAWYQQIPGQSPRLLIYWASTRESGVPDRFTGSGSGTDFTLTISSVQPEDLAIYYCHQHLSSRTFGQGTKLEIK
notes: IgG; IMGN779 VL variant #27 (Y97H)
For B10, the binding result was “binds”.

B11: MYT2632 (antibody, V domains shown)
VH: QVQLQQPGAEVVKPGASVKMSCKASGYTFTSYYIHWIKQTPGQGLEWVGVIYPGNDDISYNQKFQGKATLTADKSSTTAYMQLSSLTSEDSAVYYCAREVRLRYFDVWGQGTTVTVSS
VL: EIVLTQSPGSLAVSPGERVTMSCKSSQSVFFSSSQKNYHAWYQQIPGQSPRLLIYWASTRESGVPDRFTGSGSGTDFTLTISSVQPEDLAIYYCHQYLSSRTFGQGTKLEIK
notes: IgG; IMGN779 VL variant #16 (L39H)
Turning to B11, the binding result is listed as “binds”.

B12: MYT2644 (antibody, V domains shown)
VH: QVQLQQPGAEVVKPGASVKMSCKASGYTFTSYYIHWIKQTPGQGLEWVGVIYPGNDDISYNQKFQGKATLTADKSSTTAYMQLSSLTSEDSAVYYCAREVRLRYFDVWGQGTTVTVSS
VL: EIVLTQSPGSLAVSPGERVTMSCKSSQSVFFSSSQKNYLAWYQQIPGQSPRLLIYWASTRESGVPDRFTGSGSGTDFTLTISSVQPEDLAIYYCHQYHSSRTFGQGTKLEIK
notes: IgG; IMGN779 VL variant #28 (L98H)
In the case of B12, the binding result is listed as “binds”.

B13: MYT2646 (antibody, V domains shown)
VH: QVQLQQPGAEVVKPGASVKMSCKASGYTFTSYYIHWIKQTPGQGLEWVGVIYPGNDDISYNQKFQGKATLTADKSSTTAYMQLSSLTSEDSAVYYCAREVRLRYFDVWGQGTTVTVSS
VL: EIVLTQSPGSLAVSPGERVTMSCKSSQSVFFSSSQKNYLAWYQQIPGQSPRLLIYWASTRESGVPDRFTGSGSGTDFTLTISSVQPEDLAIYYCHQYLSHRTFGQGTKLEIK
notes: IgG; IMGN779 VL variant #30 (S100H)
On to B13, for which the binding result is given as “binds”.

B14: MYT2637 (antibody, V domains shown)
VH: QVQLQQPGAEVVKPGASVKMSCKASGYTFTSYYIHWIKQTPGQGLEWVGVIYPGNDDISYNQKFQGKATLTADKSSTTAYMQLSSLTSEDSAVYYCAREVRLRYFDVWGQGTTVTVSS
VL: EIVLTQSPGSLAVSPGERVTMSCKSSQSVFFSSSQKNYLAWYQQIPGQSPRLLIYWASHRESGVPDRFTGSGSGTDFTLTISSVQPEDLAIYYCHQYLSSRTFGQGTKLEIK
notes: IgG; IMGN779 VL variant #21 (T59H)
Regarding B14, the binding result is listed as “binds”.

B15: MYT2645 (antibody, V domains shown)
VH: QVQLQQPGAEVVKPGASVKMSCKASGYTFTSYYIHWIKQTPGQGLEWVGVIYPGNDDISYNQKFQGKATLTADKSSTTAYMQLSSLTSEDSAVYYCAREVRLRYFDVWGQGTTVTVSS
VL: EIVLTQSPGSLAVSPGERVTMSCKSSQSVFFSSSQKNYLAWYQQIPGQSPRLLIYWASTRESGVPDRFTGSGSGTDFTLTISSVQPEDLAIYYCHQYLHSRTFGQGTKLEIK
notes: IgG; IMGN779 VL variant #29 (S99H)
Regarding B15, the binding result was “binds”.

B16: MYT2634 (antibody, V domains shown)
VH: QVQLQQPGAEVVKPGASVKMSCKASGYTFTSYYIHWIKQTPGQGLEWVGVIYPGNDDISYNQKFQGKATLTADKSSTTAYMQLSSLTSEDSAVYYCAREVRLRYFDVWGQGTTVTVSS
VL: EIVLTQSPGSLAVSPGERVTMSCKSSQSVFFSSSQKNYLAWYQQIPGQSPRLLIYHASTRESGVPDRFTGSGSGTDFTLTISSVQPEDLAIYYCHQYLSSRTFGQGTKLEIK
notes: IgG; IMGN779 VL variant #18 (W56H)
B16: the binding result is given as “binds”.

B17: MYT2639 (antibody, V domains shown)
VH: QVQLQQPGAEVVKPGASVKMSCKASGYTFTSYYIHWIKQTPGQGLEWVGVIYPGNDDISYNQKFQGKATLTADKSSTTAYMQLSSLTSEDSAVYYCAREVRLRYFDVWGQGTTVTVSS
VL: EIVLTQSPGSLAVSPGERVTMSCKSSQSVFFSSSQKNYLAWYQQIPGQSPRLLIYWASTRHSGVPDRFTGSGSGTDFTLTISSVQPEDLAIYYCHQYLSSRTFGQGTKLEIK
notes: IgG; IMGN779 VL variant #23 (E61H)
With B17, the binding result is listed as “binds”.

B18: MYT2647 (antibody, V domains shown)
VH: QVQLQQPGAEVVKPGASVKMSCKASGYTFTSYYIHWIKQTPGQGLEWVGVIYPGNDDISYNQKFQGKATLTADKSSTTAYMQLSSLTSEDSAVYYCAREVRLRYFDVWGQGTTVTVSS
VL: EIVLTQSPGSLAVSPGERVTMSCKSSQSVFFSSSQKNYLAWYQQIPGQSPRLLIYWASTRESGVPDRFTGSGSGTDFTLTISSVQPEDLAIYYCHQYLSSHTFGQGTKLEIK
notes: IgG; IMGN779 VL variant #31 (R101H)
On to B18, for which the binding result is “binds”.

B19: MYT1335 (antibody, V domains shown)
VH: QVQLVQSGAEVKKPGASVKVSCKASHYTFTNYDINWVRQAPGQGLEWIGWIYPGDGSTKYNEKFKAKATLTADTSTSTAYMELRSLRSDDTAVYYCASGYEDAMDYWGQGTTVTVSS
VL: DIQMTQSPSSLSASVGDRVTINCKASQDINSYLSWFQQKPGKAPKTLIYRANRLVDGVPSRFSGSGSGQDYTLTISSLQPEDFATYYCLQYDEFPLTFGGGTKVEIK
notes: IgG; vadastuximab VH variant #1 (G26H)
As to B19, the binding result is “binds”.

B20: MYT1336 (antibody, V domains shown)
VH: QVQLVQSGAEVKKPGASVKVSCKASGHTFTNYDINWVRQAPGQGLEWIGWIYPGDGSTKYNEKFKAKATLTADTSTSTAYMELRSLRSDDTAVYYCASGYEDAMDYWGQGTTVTVSS
VL: DIQMTQSPSSLSASVGDRVTINCKASQDINSYLSWFQQKPGKAPKTLIYRANRLVDGVPSRFSGSGSGQDYTLTISSLQPEDFATYYCLQYDEFPLTFGGGTKVEIK
notes: IgG; vadastuximab VH variant #2 (Y27H)
As to B20, the binding result is on record as “binds”.

B21: MYT1337 (antibody, V domains shown)
VH: QVQLVQSGAEVKKPGASVKVSCKASGYHFTNYDINWVRQAPGQGLEWIGWIYPGDGSTKYNEKFKAKATLTADTSTSTAYMELRSLRSDDTAVYYCASGYEDAMDYWGQGTTVTVSS
VL: DIQMTQSPSSLSASVGDRVTINCKASQDINSYLSWFQQKPGKAPKTLIYRANRLVDGVPSRFSGSGSGQDYTLTISSLQPEDFATYYCLQYDEFPLTFGGGTKVEIK
notes: IgG; vadastuximab VH variant #3 (T28H)
Regarding B21, the binding result is listed as “binds”.
